# Results: paper doi:10.1101/2020.09.30.318261 (bioRxiv, 2020)
# B1: 47D11 Fab fragment (Fab, V domains shown)
# VH: QVQLQESGPGLVKPSETLSLTCSVSGGSISSHYWSWIRQPPGKGLEWIGYIYYSGSTNHNPSLKSRVTISVDTSKNQFSLKLSSVTAADTAVYYCARGVLLWFGEPIFEIWGQGTMVTVSS
# VL: EIVMTQSPATLSVSPGERATLSCRASQSVSSSLAWYQQKPGQAPRLLIYGASTRAPGIPARFSGSGSGTEFTLTISSLQSEDFAVYYCQQYNNWPLTFGGGTKVEI
# Molecular target: SARS-CoV prefusion stabilised spike ectodomain trimer (SARS-CoV Urbani, stabilised)
# Experiment: cryo-EM structure
binder,measurement,value
B1,stoichiometry N,3 Fab per spike trimer
